Data taken from patent US20020151484A1 (HYBRIGENICS, published 2002).

Legend:
Experiment in all cases: yeast two-hybrid, mating, His3/LacZ reporters
[1] = target: T1, Bait polypeptide of SEQ ID No 112, NS5B (100%), HCV strain H77 nt 8996-9220 (hepatitis C virus strain H77, UniProt Q03463 2886-2958)
T1 construct: also called Bait NS5B (100%)

[2] = target: T2, Bait polypeptide of SEQ ID No 80, E1 (4%)/E2 (95%), HCV strain H77 nt 1478-1756 (hepatitis C virus strain H77, UniProt P27958 380-470)
T2 construct: also called Bait E1 (4%)/E2 (95%)

[3] = target: T3, SID polypeptide of SEQ ID No 29, NS3 (100%), HCV strain H77 nt 4451-4790 (hepatitis C virus strain H77, UniProt P27958 1371-1482)
T3 construct: Intersection of yeast two-hybrid prey fragments; also called SID NS3 (100%)
T3 sequence: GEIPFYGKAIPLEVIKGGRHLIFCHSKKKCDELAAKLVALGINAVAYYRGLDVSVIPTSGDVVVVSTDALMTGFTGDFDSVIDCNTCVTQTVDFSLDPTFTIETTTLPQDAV

[4] = target: T4, Bait polypeptide of SEQ ID No 109, NS5B (100%), HCV strain H77 nt 7976-8759 (hepatitis C virus strain H77, UniProt P26664 2546-2805)
T4 construct: also called Bait NS5B (100%)

[5] = target: T5, SID polypeptide of SEQ ID No 30, NS4B (100%), HCV strain H77 nt 6029-6194 (hepatitis C virus strain H77, UniProt P26664 1897-1950)
T5 construct: Intersection of yeast two-hybrid prey fragments; also called SID NS4B (100%)
T5 sequence: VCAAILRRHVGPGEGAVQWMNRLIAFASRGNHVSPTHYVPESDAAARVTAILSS

[6] = target: T6, Bait polypeptide of SEQ ID No 79, E1 (100%), HCV strain H77 nt 995-1342 (hepatitis C virus strain H77, UniProt P27958 219-332)
T6 construct: also called Bait E1 (100%)
T6 chain: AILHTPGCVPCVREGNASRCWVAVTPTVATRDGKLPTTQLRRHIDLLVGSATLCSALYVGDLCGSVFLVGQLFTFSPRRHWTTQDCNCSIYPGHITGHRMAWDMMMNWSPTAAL

[7] = target: T7, SID polypeptide of SEQ ID No 31, NS5B (100%), HCV strain H77 nt 8354-8665 (hepatitis C virus strain H77, UniProt P26664 2672-2773)
T7 construct: Intersection of yeast two-hybrid prey fragments; also called SID NS5B (100%)

[8] = target: T8, Bait polypeptide of SEQ ID No 84, NS3 (100%), HCV strain H77 nt 3767-4244 (hepatitis C virus strain H77, UniProt P27958 1143-1300)
T8 construct: also called Bait NS3 (100%)
T8 chain: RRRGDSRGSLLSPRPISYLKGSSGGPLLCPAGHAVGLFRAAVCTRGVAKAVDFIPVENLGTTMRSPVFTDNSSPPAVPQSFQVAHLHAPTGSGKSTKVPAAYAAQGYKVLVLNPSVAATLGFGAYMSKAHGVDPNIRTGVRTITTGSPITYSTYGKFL

[9] = target: T9, Bait polypeptide of SEQ ID No 111, NS5B (100%), HCV strain H77 nt 8708-8978 (hepatitis C virus strain H77, UniProt P27958 2790-2878)
T9 construct: also called Bait NS5B (100%)

[10] = target: T10, SID polypeptide of SEQ ID No 8, NS4A (59%)/NS4B (40%), HCV strain H77 nt 5375-5542 (hepatitis C virus strain H77, UniProt P27958 1679-1732)
T10 construct: Intersection of yeast two-hybrid prey fragments; also called SID NS4A (59%)/NS4B (40%)
T10 sequence: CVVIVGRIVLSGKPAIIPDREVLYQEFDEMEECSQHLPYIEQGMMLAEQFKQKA

[11] = target: T11, SID polypeptide of SEQ ID No 33, NS3 (100%), HCV strain H77 nt 4715-4901 (hepatitis C virus strain H77, UniProt P27958 1459-1519)
T11 construct: Intersection of yeast two-hybrid prey fragments; also called SID NS3 (100%)
T11 sequence: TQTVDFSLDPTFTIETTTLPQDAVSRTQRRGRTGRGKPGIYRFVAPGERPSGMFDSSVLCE

[12] = target: T12, Bait polypeptide of SEQ ID No 107, NS5B (100%), HCV strain H77 nt 7838-8743 (hepatitis C virus strain H77, UniProt P26664 2500-2799)
T12 construct: also called Bait NS5B (100%)

B1: SID polypeptide of SEQ ID No 37, NS4B (57%)/NS5A(41%), HCV strain H77 nt 6194-6303 (other)
chain: TVTQLLRRLHQWISSECTTPCSGSWLRDIWDWICE
notes: Intersection of yeast two-hybrid prey fragments; also called SID NS4B (57%)/NS5A(41%)
- binding result [1]: binds

B2: SID polypeptide of SEQ ID No 5, NS3 (100%), HCV strain H77 nt 4787-5242 (other)
chain: SRTQRRGRTGRGKPGIYRFVAPGERPSGMFDSSVLCECYDAGCAWYELTPAETTVRLRAYMNTPGLPVCQDHLEFWEGVFTGLTHIDAHFLSQTKQSGENFPYLVAYQATVCARAQAPPPSWDQMWKCLIRLKPTLHGPTPLLYRLGAVQ
notes: Intersection of yeast two-hybrid prey fragments; also called SID NS3 (100%)
- binding result [2]: binds

B3: Bait polypeptide of SEQ ID No 104, NS5A (100%), HCV strain H77 nt 7019-7249 (other)
chain: IEANLLWRQEMGGNITRVESENKVVILDSFDPLVAEEDEREVSVPAEILRKSRRFARALPVWARPDYNPPLVETW
notes: also called Bait NS5A (100%)
- binding result [3]: binds

B4: SID polypeptide of SEQ ID No 34, NS5B (100%), HCV strain H77 nt 7775-8011 (other)
chain: not shown
notes: Intersection of yeast two-hybrid prey fragments; also called SID NS5B (100%)
- binding result [4]: binds

B5: Bait polypeptide of SEQ ID No 105, NS5A (100%), HCV strain H77 nt 7274-7549 (other)
chain: HGCPLPPPRSPPVPPPRKKRTVVLTESTLSTALAELATKSFGSSSTSGITGDNTTTSSEPAPSGCPPDSDVESYSSMPPLEGEPGDPDLS
notes: also called Bait NS5A (100%)
- binding result [5]: binds

B6: SID polypeptide of SEQ ID No 4, E2 (100%), HCV strain H77 nt 1871-1987 (other)
chain: PSPVVVGTTDRSGAPTYSWGANDTDVFVLNNTRPPLG
notes: Intersection of yeast two-hybrid prey fragments; also called SID E2 (100%)
- binding result [6]: binds

B7: Bait polypeptide of SEQ ID No 106, NS5B (100%), HCV strain H77 nt 7613-8027 (other)
chain: not shown
notes: also called Bait NS5B (100%)
- binding result [7]: binds

B8: SID polypeptide of SEQ ID No 9, NS3 (100%), HCV strain H77 nt 4676-4801 (other)
chain: GDFDSVIDCNTCVTQTVDFSLDPTFTIETTTLPQDAVSRT
notes: as for B2
- binding result [8]: binds

B9: SID polypeptide of SEQ ID No 36, E2 (100%), HCV strain H77 nt 1751-1865 (other)
chain: PISYANGSGLDERPYCWHYPPRPCGIVPAKSVCGPVY
notes: as for B6
- binding result [9]: binds

B10: Bait polypeptide of SEQ ID No 83, NS2 (12%)/NS3 (87%), HCV strain H77 nt 3312-4150 (other)
chain: AACGDIINGLPVSARRGQEILLGPADGMVSKGWRLLAPITAYAQQTRGLLGCIITSLTGRDKNQVEGEVQIVSTATQTFLATCINGVCWTVYHGAGTRTIASPKGPVIQMYTNVDQDLVGWPAPQGSRSLTPCTCGSSDLYLVTRHADVIPVRRRGDSRGSLLSPRPISYLKGSSGGPLLCPAGHAVGLFRAAVCTRGVAKAVDFIPVENLGTTMRSPVFTDNSSPPAVPQSFQVAHLHAPTGSGKSTKVPAAYAAQGYKVLVLNPSVAATLGFGAYM
notes: also called Bait NS2 (12%)/NS3 (87%)
- binding result [10]: binds

B11: Bait polypeptide of SEQ ID No 108, NS5B (100%), HCV strain H77 nt 7856-8458 (other)
chain: not shown
notes: also called Bait NS5B (100%)
- binding result [11]: binds

B12: SID polypeptide of SEQ ID No 32, NS5B (100%), HCV strain H77 nt 7769-8011 (other)
chain: not shown
notes: as for B4
- binding result [12]: binds
